Test results published in article doi:10.1101/2022.08.25.505315 (bioRxiv, 2022).

Target: the molecule itself
Assay: SEC

B1: human malic enzyme 3 (mitochondrial NADP+-dependent malic enzyme 3), residues 46-604 (enzyme, UniProt Q16798 46-604, looked up)
chain: LKKRGYDVTRNPHLNKGMAFTLEERLQLGIHGLIPPCFLSQDVQLLRIMRYYERQQSDLDKYIILMTLQDRNEKLFYRVLTSDVEKFMPIVYTPTVGLACQHYGLTFRRPRGLFITIHDKGHLATMLNSWPEDNIKAVVVTDGERILGLGDLGCYGMGIPVGKLALYTACGGVNPQQCLPVLLDVGTNNEELLRDPLYIGLKHQRVHGKAYDDLLDEFMQAVTDKFGINCLIQFEDFANANAFRLLNKYRNKYCMFNDDIQGTASVAVAGILAALRITKNKLSNHVFVFQGAGEAAMGIAHLLVMALEKEGVPKAEATRKIWMVDSKGLIVKGRSHLNHEKEMFAQDHPEVNSLEEVVRLVKPTAIIGVAAIAGAFTEQILRDMASFHERPIIFALSNPTSKAECTAEKCYRVTEGRGIFASGSPFKSVTLEDGKTFIPGQGNNAYVFPGVALGVIAGGIRHIPDEIFLLTAEQIAQEVSEQHLSQGRLYPPLSTIRDVSLRIAIKVLDYAYKHNLASYYPEPKDKEAFVRSLVYTPDYDSFTLDSYTWPKEAMNVQTV
For B1, the “stoichiometry N” value was 4.
